# Assay results reported in patent US10279036B2, “Antibody-albumin nanoparticle complexes comprising albumin, bevacizumab, and paclitaxel, and methods of making and using the same” (Mayo Foundation for Medical Education and Research, priority 2012, dated 2019).
# Like-named read-outs stand apart in the source and are kept apart here.
# Legend:
# [1] = system: A375 melanoma tumor cells; test: A375 proliferation assay (DNA synthesis, EdU); assay type: cell-based, human; details: 100 μg/mL, overnight
# Procedure: After the overnight incubation, cell proliferation was determined by measuring the level of DNA synthesis.
# After an overnight incubation, proliferation of the cells was measured by determining the level of DNA synthesis.
# Proliferation of A375 melanoma tumor cells in vitro following exposure to various treatments was assessed. […] With reference to FIG. 33, the complexes were made with an ABRAXANE®: AVASTIN® at a 2.5 to 1 ratio. […] The nanoparticles were resuspended in 0.9% saline and added to the wells containing 50,000 A375 cells. The cells were incubated overnight at 37° C. The cells were stained with a thymidine analog, EdU, which incorporates into the DNA as cells proliferate. Cells that are actively proliferating stain positive. The proliferation index was calculated as the % positive cells in treated cells/% positive cells in untreated cells.
# After the overnight incubation, the A375 cells were harvested, permeabolized and intracellularly stained with a FITC conjugated anti-EdU antibody. Cell proliferation was determined by DNA synthesis as a percentage of cells, which were FITC positive on a Guava 8HT flow cytometer (Millipore Billerica, Mass.). […] The proliferation index was calculated by dividing the percentage of proliferating cells in treated wells (FITC positive) by the percentage of cells proliferating in the untreated well.
# [2] = system: A375 human melanoma tumor cells; test: A375 xenograft, ABRAXANE/AVASTIN/cisplatin complexes; details: treated once intravenously
# Procedure: Athymic nude mice were injected with 1×10^6 A375 human melanoma tumor cells. […] Following incubation, the complexes were diluted for mouse injection. Mice were treated once, and tumor growth was monitored for at least 80 days for all mice.
# ABRAXANE® nanoparticles = target: T1, ABRAXANE® nanoparticles (Homo sapiens, UniProt P02768); test: Complex formation of labeled therapeutic antibodies with labeled ABRAXANE nanoparticles (flow cytometry); assay type: binding; details: fluorescently labeled, FIG. 14
# T1 construct: purchased Celgene Corp
# Text: The particles were spun down, washed, and visualized by flow cytometry.
# [3] = Bevacizumab binding of free paclitaxel (Western blot); details: 4 mg bevacizumab with 0.1-2 mg paclitaxel, 30 minutes room temperature
# Procedure: The following was performed to determine if bevacizumab binds free paclitaxel. 4 mg of bevacizumab was incubated with paclitaxel (0.1, 0.5, 1, or 2 mg) for 30 minutes at room temperature.
# human serum albumin = target: T2, human serum albumin (Homo sapiens, UniProt P02768); test: Association and dissociation of AVASTIN with human serum albumin (streptavidin sensor); assay type: binding; details: read-out: dissociation constant
# T2 construct: purchased
# Procedure: (§1) The association and dissociation of AVASTIN® with human serum albumin and ABRAXANE® were determined. In this experiment, biotinylated AVASTIN® was bound to a streptavidin sensor. After AVASTIN® loading to the sensor, the sensor was exposed to either 1 mg/mL of human serum albumin or 1 mg/mL of ABRAXANE®. […] The dissociation constants were calculated to be 6.2×10^−6 and 5.873×10^−7 for human serum albumin and ABRAXANE®, respectively.
# (§2) The association and dissociation of albumin with AVASTIN® and AVASTIN® with ABRAXANE® were determined. In this experiment, biotinylated AVASTIN® or biotinylated Albumin® was bound to a streptavidin sensor. After albumin or AVASTIN® loading to the sensor, the sensor was exposed to 1 mg/mL of AVASTIN® or 1 mg/mL of ABRAXANE®, respectively. […] The dissociation constant calculated for albumin and AVASTIN® was 6.588×10^−10. The dissociation constant calculated for AVASTIN® and ABRAXANE® in this experiment was 1.698×10^−5.
# ABRAXANE® = target: T3, ABRAXANE® (Homo sapiens, UniProt P02768); test: Association and dissociation of AVASTIN (or IgG) with ABRAXANE (streptavidin sensor); assay type: binding; details: biotinylated AVASTIN on streptavidin sensor, 1 mg/mL ABRAXANE, read-out: dissociation constant
# T3 construct: purchased Celgene Corp
# Procedure: as §1, §2
# The following was performed to assess protein binding due to deglycosylation of bevacizumab compared to naturally occurring IgG. In order to determine if bevacizumab binding to ABRAXANE® is due to the deglycosylation of the Fe chain of the antibody, the binding kinetics of bevacizumab were compare to naturally produced IgG isolated from human plasma.
"Kd (ABRAXANE®; first experiment, listed as bevacizumab) [nM]",Kd (ABRAXANE®; first experiment) [nM],Kd (ABRAXANE®; second experiment) [nM],Compound,cells killed [1] [%],median survival [2] [days],complex formation with ABRAXANE nanoparticles (ABRAXANE® nanoparticles),binding of free paclitaxel [3],"Kd (human serum albumin; biotinylated AVASTIN on streptavidin sensor, 1 mg/mL human serum albumin) [nM]","Kd (human serum albumin; biotinylated albumin on streptavidin sensor, 1 mg/mL AVASTIN) [nM]"
,,,"N.N.[Cl][Pt][Cl] [cisplatin, cisdiamminedichloroplatinum (II)]",100,9,,,,
580,587,17000,AVASTIN®: humanized monoclonal antibody that binds to vascular endothelial growth factor A,,,spontaneously formed complexes with ABRAXANE® nanoparticles,did not bind free paclitaxel,6200,0.659
,,,rituxan: therapeutic monoclonal antibody,,,spontaneously formed complexes with ABRAXANE® nanoparticles,,,
